β-galactosidase activity (units/mg bacteria) and stoichiometry N data for six substances are collected here from PMC2830194.

Experiment [1] deals with FlhA (Cpn0363), putative flagellar integral membrane protein, full length, bacterial-2-hybrid fusion (C. pneumoniae). Description: two-hybrid; bacterial-2-hybrid in E. coli DHP-1, proteins fused to adenylate cyclase fragments from pT18 and pT25; β-galactosidase activity, in triplicate; cut off for a positive interaction 577 units (table footnote; 677 in the methods).
Experiment [2] has as its target CdsL, putative T3S ATPase tethering protein, bacterial-2-hybrid fusion (C. pneumoniae). The experiment is described as above.
The target in experiment [3] is CopN, putative T3S plug protein, bacterial-2-hybrid fusion (C. pneumoniae). The experiment can be described thus: two-hybrid.
Experiment [4] deals with Full length His-Cpn0859 (C. pneumoniae). The experiment can be described thus: cross-linking.
The target of experiment [5] is CdsD-FHA-2, bacterial-2-hybrid fusion (positive control) (C. pneumoniae). The experiment can be described thus: two-hybrid; bacterial-2-hybrid in E. coli DHP-1, proteins fused to adenylate cyclase fragments from pT18 and pT25; β-galactosidase activity, in triplicate; cut off for a positive interaction 577 units (table footnote; 677 in the methods).

On to “CdsL, putative T3S ATPase tethering protein, bacterial-2-hybrid fusion (natural protein)”, for which the β-galactosidase activity (units/mg bacteria) in experiment [1] was found to be 832.

As to “Cpn0322 (putative CdsU, YscU ortholog), bacterial-2-hybrid fusion (natural protein)”, in experiment [1], the β-galactosidase activity (units/mg bacteria) came out at 780.

Substance “FliF (Cpn0860), putative flagellar MS ring protein, full length, bacterial-2-hybrid fusion (natural protein)” had a β-galactosidase activity (units/mg bacteria) in experiment [1] of 847.

For the substance “FliI (Cpn0858), putative flagellar ATPase, bacterial-2-hybrid fusion (enzyme)”, the β-galactosidase activity (units/mg bacteria) was determined as 943 in experiment [1], 874 in experiment [2] and 943 in experiment [3].

As usually defined, the stoichiometry N is a count of units in the complex or per binding partner. Substance “Full length His-Cpn0859 (natural protein)” registered a stoichiometry N in experiment [4] of 2.

“PknD, bacterial-2-hybrid fusion (positive control) (natural protein)” registered a β-galactosidase activity (units/mg bacteria) in experiment [5] of 996.
